Laboratory results: patent US20140213531A1 (POLYPHOR, published 2014)
Bridges are numbered along the chain shown (N, C = ends). [ ]: non-standard residue; d: D form. Nle = CCCC[C@H](N)C(=O)O; Abu = CC[C@H](N)C(=O)O

T1: Elastase from human neutrophils (human, UniProt P08246 30-247, limits assumed)
T1 sequence (looked up): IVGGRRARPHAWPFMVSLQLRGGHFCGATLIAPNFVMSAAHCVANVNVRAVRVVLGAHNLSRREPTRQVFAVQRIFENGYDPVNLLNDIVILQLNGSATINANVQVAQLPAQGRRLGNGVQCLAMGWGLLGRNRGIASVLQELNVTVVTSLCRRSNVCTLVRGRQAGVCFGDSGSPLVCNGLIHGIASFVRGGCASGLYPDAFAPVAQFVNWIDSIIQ

T2: CathepsinG, from human neutrophils (human, UniProt P08311 21-244)
T2 sequence (looked up): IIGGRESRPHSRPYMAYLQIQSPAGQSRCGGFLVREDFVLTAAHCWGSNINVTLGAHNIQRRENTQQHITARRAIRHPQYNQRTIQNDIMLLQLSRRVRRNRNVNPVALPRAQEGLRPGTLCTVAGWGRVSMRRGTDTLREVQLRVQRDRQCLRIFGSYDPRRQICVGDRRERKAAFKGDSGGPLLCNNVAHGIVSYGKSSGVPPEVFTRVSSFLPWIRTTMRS

T3: Chymase, from human skin (human, UniProt P23946 22-247)
T3 sequence (looked up): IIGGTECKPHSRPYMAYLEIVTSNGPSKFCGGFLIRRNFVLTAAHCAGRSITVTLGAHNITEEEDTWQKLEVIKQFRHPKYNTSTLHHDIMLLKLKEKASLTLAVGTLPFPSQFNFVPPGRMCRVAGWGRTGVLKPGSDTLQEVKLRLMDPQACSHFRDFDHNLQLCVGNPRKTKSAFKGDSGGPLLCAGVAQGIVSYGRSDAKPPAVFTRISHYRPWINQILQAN

B1: Example 10 (peptide)
peptide: XCTKSDPPICS
HELM: PEPTIDE1{[Nle].C.T.K.S.D.P.P.I.C.S.[dP].P}$PEPTIDE1,PEPTIDE1,2:R3-10:R3|PEPTIDE1,PEPTIDE1,1:R1-13:R2$$$V2.0
SMILES: CCCC[C@@H]1NC(=O)[C@@H]2CCCN2C(=O)[C@H]2CCCN2C(=O)[C@H](CO)NC(=O)[C@@H]2CSSC[C@H](NC1=O)C(=O)N[C@@H]([C@@H](C)O)C(=O)N[C@@H](CCCCN)C(=O)N[C@@H](CO)C(=O)N[C@@H](CC(=O)O)C(=O)N1CCC[C@H]1C(=O)N1CCC[C@H]1C(=O)N[C@@H]([C@@H](C)CC)C(=O)N2
B2: Example 76 (peptide)
peptide: ICTASLPPQCY
HELM: PEPTIDE1{I.C.T.A.S.L.P.P.Q.C.Y.[dP].P}$PEPTIDE1,PEPTIDE1,2:R3-10:R3|PEPTIDE1,PEPTIDE1,1:R1-13:R2$$$V2.0
SMILES: CC[C@H](C)[C@@H]1NC(=O)[C@@H]2CCCN2C(=O)[C@H]2CCCN2C(=O)[C@H](Cc2ccc(O)cc2)NC(=O)[C@@H]2CSSC[C@H](NC1=O)C(=O)N[C@@H]([C@@H](C)O)C(=O)N[C@@H](C)C(=O)N[C@@H](CO)C(=O)N[C@@H](CC(C)C)C(=O)N1CCC[C@H]1C(=O)N1CCC[C@H]1C(=O)N[C@@H](CCC(N)=O)C(=O)N2
B3: Example 83 (peptide)
peptide: XCTASXPPQCY
HELM: PEPTIDE1{[Nle].C.T.A.S.[CC(C)CC[C@H](N[*:1])C(=O)[*:2]].P.P.Q.C.Y.[dP].P}$PEPTIDE1,PEPTIDE1,2:R3-10:R3|PEPTIDE1,PEPTIDE1,1:R1-13:R2$$$V2.0
SMILES: CCCC[C@@H]1NC(=O)[C@@H]2CCCN2C(=O)[C@H]2CCCN2C(=O)[C@H](Cc2ccc(O)cc2)NC(=O)[C@@H]2CSSC[C@H](NC1=O)C(=O)N[C@@H]([C@@H](C)O)C(=O)N[C@@H](C)C(=O)N[C@@H](CO)C(=O)N[C@@H](CCC(C)C)C(=O)N1CCC[C@H]1C(=O)N1CCC[C@H]1C(=O)N[C@@H](CCC(N)=O)C(=O)N2
B4: Example 79 (peptide)
peptide: XCTASXPPQCY
HELM: PEPTIDE1{[Nle].C.T.A.S.[Nle].P.P.Q.C.Y.[dP].P}$PEPTIDE1,PEPTIDE1,2:R3-10:R3|PEPTIDE1,PEPTIDE1,1:R1-13:R2$$$V2.0
SMILES: CCCC[C@@H]1NC(=O)[C@@H]2CCCN2C(=O)[C@H]2CCCN2C(=O)[C@H](Cc2ccc(O)cc2)NC(=O)[C@@H]2CSSC[C@H](NC1=O)C(=O)N[C@@H]([C@@H](C)O)C(=O)N[C@@H](C)C(=O)N[C@@H](CO)C(=O)N[C@@H](CCCC)C(=O)N1CCC[C@H]1C(=O)N1CCC[C@H]1C(=O)N[C@@H](CCC(N)=O)C(=O)N2
B5: Example 9 (peptide)
peptide: XCTKSDPPICS
HELM: PEPTIDE1{[Nc1ccc(C[C@H](N[*:1])C(=O)[*:2])cc1].C.T.K.S.D.P.P.I.C.S.[dP].P}$PEPTIDE1,PEPTIDE1,2:R3-10:R3|PEPTIDE1,PEPTIDE1,1:R1-13:R2$$$V2.0
SMILES: CC[C@H](C)[C@@H]1NC(=O)[C@@H]2CCCN2C(=O)[C@@H]2CCCN2C(=O)[C@H](CC(=O)O)NC(=O)[C@H](CO)NC(=O)[C@H](CCCCN)NC(=O)[C@H]([C@@H](C)O)NC(=O)[C@@H]2CSSC[C@H](NC1=O)C(=O)N[C@@H](CO)C(=O)N1CCC[C@@H]1C(=O)N1CCC[C@H]1C(=O)N[C@@H](Cc1ccc(N)cc1)C(=O)N2
B6: Example 25 (peptide)
peptide: FCTKXDPPICS
HELM: PEPTIDE1{F.C.T.K.[NC[C@H](N[*:1])C(=O)[*:2]].D.P.P.I.C.S.[dP].P}$PEPTIDE1,PEPTIDE1,2:R3-10:R3|PEPTIDE1,PEPTIDE1,1:R1-13:R2$$$V2.0
SMILES: CC[C@H](C)[C@@H]1NC(=O)[C@@H]2CCCN2C(=O)[C@@H]2CCCN2C(=O)[C@H](CC(=O)O)NC(=O)[C@H](CN)NC(=O)[C@H](CCCCN)NC(=O)[C@H]([C@@H](C)O)NC(=O)[C@@H]2CSSC[C@H](NC1=O)C(=O)N[C@@H](CO)C(=O)N1CCC[C@@H]1C(=O)N1CCC[C@H]1C(=O)N[C@@H](Cc1ccccc1)C(=O)N2
B7: Example 77 (peptide)
peptide: XCTTSIPPYCY
HELM: PEPTIDE1{[Nle].C.T.T.S.I.P.P.Y.C.Y.[dP].P}$PEPTIDE1,PEPTIDE1,2:R3-10:R3|PEPTIDE1,PEPTIDE1,1:R1-13:R2$$$V2.0
SMILES: CCCC[C@@H]1NC(=O)[C@@H]2CCCN2C(=O)[C@H]2CCCN2C(=O)[C@H](Cc2ccc(O)cc2)NC(=O)[C@@H]2CSSC[C@H](NC1=O)C(=O)N[C@@H]([C@@H](C)O)C(=O)N[C@@H]([C@@H](C)O)C(=O)N[C@@H](CO)C(=O)N[C@@H]([C@@H](C)CC)C(=O)N1CCC[C@H]1C(=O)N1CCC[C@H]1C(=O)N[C@@H](Cc1ccc(O)cc1)C(=O)N2
B8: Example 53 (peptide)
peptide: FCTKSDPPXCS
HELM: PEPTIDE1{F.C.T.K.S.D.P.P.[Nle].C.S.[dP].P}$PEPTIDE1,PEPTIDE1,2:R3-10:R3|PEPTIDE1,PEPTIDE1,1:R1-13:R2$$$V2.0
SMILES: CCCC[C@@H]1NC(=O)[C@@H]2CCCN2C(=O)[C@@H]2CCCN2C(=O)[C@H](CC(=O)O)NC(=O)[C@H](CO)NC(=O)[C@H](CCCCN)NC(=O)[C@H]([C@@H](C)O)NC(=O)[C@@H]2CSSC[C@H](NC1=O)C(=O)N[C@@H](CO)C(=O)N1CCC[C@@H]1C(=O)N1CCC[C@H]1C(=O)N[C@@H](Cc1ccccc1)C(=O)N2
B9: Example 13 (peptide)
peptide: XCTKSDPPICR
HELM: PEPTIDE1{[O=C([C@H](Cc1ccccc1Cl)N[*:1])[*:2]].C.T.K.S.D.P.P.I.C.R.[dP].P}$PEPTIDE1,PEPTIDE1,2:R3-10:R3|PEPTIDE1,PEPTIDE1,1:R1-13:R2$$$V2.0
SMILES: CC[C@H](C)[C@@H]1NC(=O)[C@@H]2CCCN2C(=O)[C@@H]2CCCN2C(=O)[C@H](CC(=O)O)NC(=O)[C@H](CO)NC(=O)[C@H](CCCCN)NC(=O)[C@H]([C@@H](C)O)NC(=O)[C@@H]2CSSC[C@H](NC1=O)C(=O)N[C@@H](CCCNC(=N)N)C(=O)N1CCC[C@@H]1C(=O)N1CCC[C@H]1C(=O)N[C@@H](Cc1ccccc1Cl)C(=O)N2
B10: Example 80 (peptide)
peptide: XCTASXPPQCY
HELM: PEPTIDE1{[Nle].C.T.A.S.[CCCCCC[C@H](N[*:1])C(=O)[*:2]].P.P.Q.C.Y.[dP].P}$PEPTIDE1,PEPTIDE1,2:R3-10:R3|PEPTIDE1,PEPTIDE1,1:R1-13:R2$$$V2.0
SMILES: CCCCCC[C@@H]1NC(=O)[C@H](CO)NC(=O)[C@H](C)NC(=O)[C@H]([C@@H](C)O)NC(=O)[C@@H]2CSSC[C@H](NC(=O)[C@H](CCC(N)=O)NC(=O)[C@@H]3CCCN3C(=O)[C@@H]3CCCN3C1=O)C(=O)N[C@@H](Cc1ccc(O)cc1)C(=O)N1CCC[C@@H]1C(=O)N1CCC[C@H]1C(=O)N[C@@H](CCCC)C(=O)N2
B11: Example 71 (peptide)
peptide: XCTKSDPPXCR
HELM: PEPTIDE1{[O=C([C@@H](N[*:1])C1CCCCC1)[*:2]].C.T.K.S.D.P.P.[Cha].C.R.[dP].P}$PEPTIDE1,PEPTIDE1,2:R3-10:R3|PEPTIDE1,PEPTIDE1,1:R1-13:R2$$$V2.0
SMILES: C[C@@H](O)[C@@H]1NC(=O)[C@@H]2CSSC[C@H](NC(=O)[C@H](CC3CCCCC3)NC(=O)[C@@H]3CCCN3C(=O)[C@@H]3CCCN3C(=O)[C@H](CC(=O)O)NC(=O)[C@H](CO)NC(=O)[C@H](CCCCN)NC1=O)C(=O)N[C@@H](CCCNC(=N)N)C(=O)N1CCC[C@@H]1C(=O)N1CCC[C@H]1C(=O)N[C@@H](C1CCCCC1)C(=O)N2

biological target: T1, Elastase from human neutrophils; experiment: cell-based or functional assay

Question: B1 was tested. Which “% inhibition at 100 µM” value did it give?
Answer: 0.3%

Question: How did the IC50 turn out when B2 was run?
Answer: 71 nmol

Question: Which IC50 does the source give for B3 here?
Answer: 43 nmol

Question: B4 was tested. Which IC50 did it give?
Answer: 66 nmol

Question: Which “% inhibition at 100 µM” value does the source give for B5 here?
Answer: 4.1%

Question: B6 was tested. Which “% inhibition at 100 µM” value did it give?
Answer: 3.2%

Question: How did the IC50 turn out when cyclo(FCTKSDPPICS[dP]L) (disulfide 2-10) [Example 74] was run?
Answer: > 100000 nmol

Question: With B7 as the binder, how does the IC50 read?
Answer: 68 nmol

Question: How did the IC50 turn out when B8 was run?
Answer: > 100000 nmol

Question: How did the “% inhibition at 100 µM” value turn out when B9 was run?
Answer: 8.2%

Question: B10 was tested. Which IC50 did it give?
Answer: 35 nmol

Question: With cyclo([Nle]CT[Abu]SIPPQCY[dP]P) (disulfide 2-10) [Example 78] as the binder, how does the IC50 read?
Answer: 29 nmol

Question: For cyclo(FCTKSDPPICS[dP]L) (disulfide 2-10) [Example 51], which IC50 is on record?
Answer: > 100000 nmol

biological target: T2, CathepsinG, from human neutrophils; experiment: cell-based or functional assay

Question: How did the IC50 turn out when B1 was run?
Answer: 75 nmol

Question: For B11, which IC50 is on record?
Answer: 70 nmol

Question: How did the IC50 turn out when B5 was run?
Answer: 105 nmol

Question: How did the IC50 turn out when B6 was run?
Answer: 102 nmol

Question: For cyclo(FCTKSDPPICS[dP]L) (disulfide 2-10) [Example 74], which IC50 is on record?
Answer: 91 nmol

Question: For B8, which IC50 is on record?
Answer: 56 nmol

Question: How did the IC50 turn out when B9 was run?
Answer: 100 nmol

Question: For cyclo(FCTKSDPPICS[dT]P) (disulfide 2-10) [Example 72], which IC50 is on record?
Answer: 87 nmol

Question: For cyclo(FCTKSDPPICS[dP]L) (disulfide 2-10) [Example 51], which IC50 is on record?
Answer: 91 nmol

biological target: Trypsin, Iodination grade, from human pancreas (human, UniProt P07477 24-247); experiment: cell-based or functional assay

Question: How did the “% inhibition at 100 µM” value turn out when B1 was run?
Answer: 89.9%

Question: With B5 as the binder, how does the “% inhibition at 100 µM” value read?
Answer: 88.1%

Question: For B6, which “% inhibition at 100 µM” value is on record?
Answer: 89.3%

Question: Which “% inhibition at 100 µM” value does the source give for cyclo(FCTKSDPPICS[dP]L) (disulfide 2-10) [Example 74] here?
Answer: 86%

Question: Which “% inhibition at 100 µM” value does the source give for B8 here?
Answer: 95%

Question: For B9, which “% inhibition at 100 µM” value is on record?
Answer: 95%

biological target: T3, Chymase, from human skin; experiment: cell-based or functional assay

Question: Which “% inhibition at 100 µM” value does the source give for B1 here?
Answer: 9.4%

Question: With B6 as the binder, how does the “% inhibition at 100 µM” value read?
Answer: 10%

Question: B8 was tested. Which “% inhibition at 100 µM” value did it give?
Answer: 12.7%

Question: For B9, which “% inhibition at 100 µM” value is on record?
Answer: 19.9%
